Biological target: complement factor C1q (UniProt P02745)
Experiment: flow cytometry: BT-474 cells with 10 µg/mL antibody, then 10 µg/mL C1q, detected with PE-labeled anti-C1q antibody

Chain of complement factor C1q (P02745 23-245 limits assumed, chain 1 of 3): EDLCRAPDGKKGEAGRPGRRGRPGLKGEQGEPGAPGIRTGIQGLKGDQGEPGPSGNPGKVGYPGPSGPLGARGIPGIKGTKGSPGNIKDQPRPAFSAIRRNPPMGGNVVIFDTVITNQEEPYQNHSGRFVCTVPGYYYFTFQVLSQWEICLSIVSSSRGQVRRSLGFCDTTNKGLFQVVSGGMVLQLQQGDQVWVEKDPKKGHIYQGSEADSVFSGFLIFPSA
Chain of complement factor C1q (P02746 28-253 limits assumed, chain 2 of 3, further chain): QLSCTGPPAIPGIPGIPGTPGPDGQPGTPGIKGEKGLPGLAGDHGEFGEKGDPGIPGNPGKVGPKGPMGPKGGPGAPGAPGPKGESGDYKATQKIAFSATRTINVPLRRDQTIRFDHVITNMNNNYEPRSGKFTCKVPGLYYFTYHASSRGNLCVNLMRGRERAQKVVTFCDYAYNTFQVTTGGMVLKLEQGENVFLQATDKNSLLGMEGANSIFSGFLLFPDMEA
Chain of complement factor C1q (P02747 29-245 limits assumed, chain 3 of 3, further chain): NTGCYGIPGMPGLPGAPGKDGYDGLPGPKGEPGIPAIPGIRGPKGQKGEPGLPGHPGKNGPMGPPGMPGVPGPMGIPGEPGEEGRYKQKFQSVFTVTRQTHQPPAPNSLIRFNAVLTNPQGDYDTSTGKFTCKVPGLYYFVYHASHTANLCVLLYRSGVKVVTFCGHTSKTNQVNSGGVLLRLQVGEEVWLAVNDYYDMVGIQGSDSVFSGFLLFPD

**Q.** “combination of trastuzumab and pertuzumab (from UniProt P0DOX5 2-449; P0DOX5 2-449)” was tested. Which PE-signal (geomean) (geomean PE-signal) did it give?
**A.** 2160

From US20180017572A1
